B1: APC/C activator protein CDH1 (Saccharomyces cerevisiae), P53197 (parent)
chain: MSTNLNPFMNNTPSSSPLKGSESKRVSKRPISSSSSASLLSSPSRRSRPSTVYGDRYIPSRTDIDFNSIVSISSMASVPALNPSSTEDQVEYQKERQAHETYNTLLKNELFGEMLSKDTVGSESSIDRIKNTRPSTRGNVHAENTTRHGYELERVSTPPPEAAGLEEFSPHSTPVTPRRLFTSQQDEITRPSSNSVRGASLLTYQQRKGRRLSAASLLQSQFFDSMSPVRPDSKQLLLSPGKQFRQIAKVPYRVLDAPSLADDFYYSLIDWSSTDVLAVALGKSIFLTDNNTGDVVHLCDTENEYTSLSWIGAGSHLAVGQANGLVEIYDVMKRKCIRTLSGHIDRVACLSWNNHVLTSGSRDHRILHRDVRMPDPFFETIESHTQEVCGLKWNVADNKLASGGNDNVVHVYEGTSKSPILTFDEHKAAVKAMAWSPHKRGVLATGGGTADRRLKIWNVNTSIKMSDIDSGSQICNMVWSKNTNELVTSHGYSKYNLTLWDCNSMDPIAILKGHSFRVLHLTLSNDGTTVVSGAGDETLRYWKLFDKPKAKVQPNSLIFDAFNQIR
B2: APC/C-CDH1 modulator 1 (Saccharomyces cerevisiae), Q08981 (parent)
chain: MISPSKKRTILSSKNINQKPRAVVKGNELRSPSKRRSQIDTDYALRRSPIKTIQISKAAQFMLYEETAEERNIAVHRHNEIYNNNNSVSNENNPSQVKENLSPAKICPYERAFLREGGRIALKDLSVDEFKGYIQDPLTDETIPLTLPLGDKKISLPSFITPPRNSKISIFFTSKHQGQNPETKISRSTDDVSEKKVVRKLSFHVYEDE
partner: B1 chain
B3: APC/C activator protein CDH1 (Saccharomyces cerevisiae), P53197 (parent)
chain: B1 chain
partner: B2 chain
B4: Probable serine/threonine-protein kinase HSL1 (Saccharomyces cerevisiae), P34244 (parent)
chain: MTGHVSKTSHVPKGRPSSLAKKAAKRAMAKVNSNPKRASGHLERVVQSVNDATKRLSQPDSTVSVATKSSKRKSRDTVGPWKLGKTLGKGSSGRVRLAKNMETGQLAAIKIVPKKKAFVHCSNNGTVPNSYSSSMVTSNVSSPSIASREHSNHSQTNPYGIEREIVIMKLISHTNVMALFEVWENKSELYLVLEYVDGGELFDYLVSKGKLPEREAIHYFKQIVEGVSYCHSFNICHRDLKPENLLLDKKNRRIKIADFGMAALELPNKLLKTSCGSPHYASPEIVMGRPYHGGPSDVWSCGIVLFALLTGHLPFNDDNIKKLLLKVQSGKYQMPSNLSSEARDLISKILVIDPEKRITTQEILKHPLIKKYDDLPVNKVLRKMRKDNMARGKSNSDLHLLNNVSPSIVTLHSKGEIDESILRSLQILWHGVSRELITAKLLQKPMSEEKLFYSLLLQYKQRHSISLSSSSENKKSATESSVNEPRIEYASKTANNTGLRSENNDVKTLHSLEIHSEDTSTVNQNNAITGVNTEINAPVLAQKSQFSINTLSQPESDKAEAEAVTLPPAIPIFNASSSRIFRNSYTSISSRSRRSLRLSNSRLSLSASTSRETVHDNEMPLPQLPKSPSRYSLSRRAIHASPSTKSIHKSLSRKNIAATVAARRTLQNSASKRSLYSLQSISKRSLNLNDLLVFDDPLPSKKPASENVNKSEPHSLESDSDFEILCDQILFGNALDRILEEEEDNEKERDTQRQRQNDTKSSADTFTISGVSTNKENEGPEYPTKIEKNQFNMSYKPSENMSGLSSFPIFEKENTLSSSYLEEQKPKRAALSDITNSFNKMNKQEGMRIEKKIQREQLQKKNDRPSPLKPIQHQELRVNSLPNDQGKPSLSLDPRRNISQPVNSKVESLLQGLKFKKEPASHWTHERGSLFMSEHVEDEKPVKASDVSIESSYVPLTTVATSSRDPSVLAESSTIQKPMLSLPSSFLNTSMTFKNLSQILADDGDDKHLSVPQNQSRSVAMSHPLRKQSAKISLTPRSNLNANLSVKRNQGSPGSYLSNDLDGISDMTFAMEIPTNTFTAQAIQLMNNDTDNNKINTSPKASSFTKEKVIKSAAYISKEKEPDNSDTNYIPDYTIPNTYDEKAINIFEDAPSDEGSLNTSSSESDSRASVHRKAVSIDTMATTNVLTPATNVRVSLYWNNNSSGIPRETTEEILSKLRLSPENPSNTHMQKRFSSTRGSRDSNALGISQSLQSMFKDLEEDQDGHTSQADILESSMSYSKRRPSEESVNPKQRVTMLFDEEEEESKKVGGGKIKEEHTKLDNKISEESSQLVLPVVEKKENANNTENNYSKIPKPSTIKVTKDTAMESNTQTHTKKPILKSVQNVEVEEAPSSDKKNWFVKLFQNFSSHNNATKASKNHVTNISFDDAHMLTLNEFNKNSIDYQLKNLDHKFGRKVVEYDCKFVKGNFKFKIKITSTPNASTVITVKKRSKHSNTSSNKAFEKFNDDVERVIRNAGRS
partner: B1 chain

Variants of: B1
Details: with hsl1_yeast HSL1, P34244

Variant | effect of a mutation on the interaction
G535A | disrupting interaction
P258A | disrupting interaction
L255V | disrupting interaction
D536A | increasing interaction

Variants of: B2
Details: with cdh1_yeast CDH1, P53197

Variant | effect of a mutation on the interaction
K98A | disrupting interaction
E99A | disrupting interaction
N100A | disrupting interaction
E65D | disrupting interaction
E66A | disrupting interaction

More lines, now with the values ahead:

effect of a mutation on the interaction | Variant
disrupting interaction | L122A
disrupting interaction | R119A

Variants of: B2
Details: with cdh1_yeast CDH1, P53197
Remark: another data set of the same source

Variant | effect of a mutation on the interaction
R8A | disrupting interaction
L11D | disrupting interaction

Variants of: B2
Details: with cdh1_yeast CDH1, P53197
Remark: another data set of the same source

Variant | effect of a mutation on the interaction
E65A | disrupting interaction
E66D | disrupting interaction
E69A | disrupting interaction
T67A | disrupting interaction

Variants of: B2
Details: with cdh1_yeast CDH1, P53197
Remark: another data set of the same source

Variant | effect of a mutation on the interaction
E65A | decreasing interaction
E66A | decreasing interaction
E69A | decreasing interaction
T67A | decreasing interaction

Variants of: B3
Details: with acm1_yeast ACM1, Q08981

Variant | effect of a mutation on the interaction
P258A | disrupting interaction
L255V | disrupting interaction
D536A | increasing interaction
G535A | disrupting interaction

Variants of: B4
Details: with cdh1_yeast CDH1, P53197

Variant | effect of a mutation on the interaction
E781A | disrupting interaction
N777A | disrupting interaction
K775A | disrupting interaction
E776A | disrupting interaction
